We go through 15 molecules from US20240400708A1.

The target in assay [1] is feline FcRn complex (FcRn-α subunit and β-microglobulin), biotin labeled (feline). Nature of the assay: SPR, pH 7.4. (In general: SPR reads the build-up and loss of mass on a sensor chip optically.)
Assay [2] shares this target. Put plainly: SPR, pH 6.

In general, Kd refers to the concentration at which binding is half-saturated.

B1: feline IgG1a S252H/S428M/S434Y (antibody, part only; not given: Variable domains, not shown: another chain or arm of the molecule)
constant: ASTTAPSVFPLAPSCGTTSGATVALACLVLGYFPEPVTVSWNSGALTSGVHTFPAVLQASGLYSLSSMVTVPSSRWLSDTFTCNVAHPPSNTKVDKTVRKTDHPPGPKPCDCPKCPPPEMLGGPSIFIFPPKPKDTLHISRTPEVTCLVVDLGPDDSDVQITWFVDNTQVYTAKTSPREEQFNSTYRVVSVLPILHQDWLKGKEFKCKVNSKSLPSPIERTISKAKGQPHEPQVYVLPPAQEELSRNKVSVTCLIKSFHPPDIAVEWEITGQPEPENNYRTTPPQLDSDGTYFVYSKLSVDRSHWQRGNTYTCSVMHEALHYHHTQKSLTQSPGK
On to B1, for which the Kd was 20.7 nM in assay [1] and 0.138 nM in assay [2].

B2: feline IgG1a S252H/S434P (antibody, part only; not given: Variable domains, not shown: another chain or arm of the molecule)
constant: ASTTAPSVFPLAPSCGTTSGATVALACLVLGYFPEPVTVSWNSGALTSGVHTFPAVLQASGLYSLSSMVTVPSSRWLSDTFTCNVAHPPSNTKVDKTVRKTDHPPGPKPCDCPKCPPPEMLGGPSIFIFPPKPKDTLHISRTPEVTCLVVDLGPDDSDVQITWFVDNTQVYTAKTSPREEQFNSTYRVVSVLPILHQDWLKGKEFKCKVNSKSLPSPIERTISKAKGQPHEPQVYVLPPAQEELSRNKVSVTCLIKSFHPPDIAVEWEITGQPEPENNYRTTPPQLDSDGTYFVYSKLSVDRSHWQRGNTYTCSVSHEALHPHHTQKSLTQSPGK
On to B2, for which the dissociation constant (Kd) in assay [1] was found to be 12.8 nM; in assay [2], 9.32 nM.

B3: feline IgG1a S252H/S434L (antibody, part only; not given: Variable domains, not shown: another chain or arm of the molecule)
constant: ASTTAPSVFPLAPSCGTTSGATVALACLVLGYFPEPVTVSWNSGALTSGVHTFPAVLQASGLYSLSSMVTVPSSRWLSDTFTCNVAHPPSNTKVDKTVRKTDHPPGPKPCDCPKCPPPEMLGGPSIFIFPPKPKDTLHISRTPEVTCLVVDLGPDDSDVQITWFVDNTQVYTAKTSPREEQFNSTYRVVSVLPILHQDWLKGKEFKCKVNSKSLPSPIERTISKAKGQPHEPQVYVLPPAQEELSRNKVSVTCLIKSFHPPDIAVEWEITGQPEPENNYRTTPPQLDSDGTYFVYSKLSVDRSHWQRGNTYTCSVSHEALHLHHTQKSLTQSPGK
For the molecule B3, the results for the Kd in assay [1] and in assay [2] were 3.79 nM and 6.08 nM, respectively.

B4: feline IgG1a D312R (antibody, part only; not given: Variable domains, not shown: another chain or arm of the molecule)
constant: ASTTAPSVFPLAPSCGTTSGATVALACLVLGYFPEPVTVSWNSGALTSGVHTFPAVLQASGLYSLSSMVTVPSSRWLSDTFTCNVAHPPSNTKVDKTVRKTDHPPGPKPCDCPKCPPPEMLGGPSIFIFPPKPKDTLSISRTPEVTCLVVDLGPDDSDVQITWFVDNTQVYTAKTSPREEQFNSTYRVVSVLPILHQRWLKGKEFKCKVNSKSLPSPIERTISKAKGQPHEPQVYVLPPAQEELSRNKVSVTCLIKSFHPPDIAVEWEITGQPEPENNYRTTPPQLDSDGTYFVYSKLSVDRSHWQRGNTYTCSVSHEALHSHHTQKSLTQSPGK
Regarding B4, the Kd in assay [1] is 25 nM; in assay [2] it was 6.91 nM.

B5: feline IgG1a S252H/S434W (antibody, part only; not given: Variable domains, not shown: another chain or arm of the molecule)
constant: ASTTAPSVFPLAPSCGTTSGATVALACLVLGYFPEPVTVSWNSGALTSGVHTFPAVLQASGLYSLSSMVTVPSSRWLSDTFTCNVAHPPSNTKVDKTVRKTDHPPGPKPCDCPKCPPPEMLGGPSIFIFPPKPKDTLHISRTPEVTCLVVDLGPDDSDVQITWFVDNTQVYTAKTSPREEQFNSTYRVVSVLPILHQDWLKGKEFKCKVNSKSLPSPIERTISKAKGQPHEPQVYVLPPAQEELSRNKVSVTCLIKSFHPPDIAVEWEITGQPEPENNYRTTPPQLDSDGTYFVYSKLSVDRSHWQRGNTYTCSVSHEALHWHHTQKSLTQSPGK
In the case of B5, the Kd amounted to 31.1 nM in assay [1] and 0.469 nM in assay [2].

B6: feline IgG1a S252Y/S428M/D312P (antibody, part only; not given: Variable domains, not shown: another chain or arm of the molecule)
constant: ASTTAPSVFPLAPSCGTTSGATVALACLVLGYFPEPVTVSWNSGALTSGVHTFPAVLQASGLYSLSSMVTVPSSRWLSDTFTCNVAHPPSNTKVDKTVRKTDHPPGPKPCDCPKCPPPEMLGGPSIFIFPPKPKDTLYISRTPEVTCLVVDLGPDDSDVQITWFVDNTQVYTAKTSPREEQFNSTYRVVSVLPILHQPWLKGKEFKCKVNSKSLPSPIERTISKAKGQPHEPQVYVLPPAQEELSRNKVSVTCLIKSFHPPDIAVEWEITGQPEPENNYRTTPPQLDSDGTYFVYSKLSVDRSHWQRGNTYTCSVMHEALHSHHTQKSLTQSPGK
Take B6: the Kd in assay [1] turned out to be 25.3 nM; in assay [2] it was 0.796 nM.

B7: feline IgG1a S252Y/S428M/L314K (antibody, part only; not given: Variable domains, not shown: another chain or arm of the molecule)
constant: ASTTAPSVFPLAPSCGTTSGATVALACLVLGYFPEPVTVSWNSGALTSGVHTFPAVLQASGLYSLSSMVTVPSSRWLSDTFTCNVAHPPSNTKVDKTVRKTDHPPGPKPCDCPKCPPPEMLGGPSIFIFPPKPKDTLYISRTPEVTCLVVDLGPDDSDVQITWFVDNTQVYTAKTSPREEQFNSTYRVVSVLPILHQDWKKGKEFKCKVNSKSLPSPIERTISKAKGQPHEPQVYVLPPAQEELSRNKVSVTCLIKSFHPPDIAVEWEITGQPEPENNYRTTPPQLDSDGTYFVYSKLSVDRSHWQRGNTYTCSVMHEALHSHHTQKSLTQSPGK
For the molecule B7, the Kd in assay [1] came out at 25 nM; in assay [2] it was 2.13 nM.

B8: feline IgG1a S252H/S434Y (antibody, part only; not given: Variable domains, not shown: another chain or arm of the molecule)
constant: ASTTAPSVFPLAPSCGTTSGATVALACLVLGYFPEPVTVSWNSGALTSGVHTFPAVLQASGLYSLSSMVTVPSSRWLSDTFTCNVAHPPSNTKVDKTVRKTDHPPGPKPCDCPKCPPPEMLGGPSIFIFPPKPKDTLHISRTPEVTCLVVDLGPDDSDVQITWFVDNTQVYTAKTSPREEQFNSTYRVVSVLPILHQDWLKGKEFKCKVNSKSLPSPIERTISKAKGQPHEPQVYVLPPAQEELSRNKVSVTCLIKSFHPPDIAVEWEITGQPEPENNYRTTPPQLDSDGTYFVYSKLSVDRSHWQRGNTYTCSVSHEALHYHHTQKSLTQSPGK
Take B8: the Kd in assay [1] was found to be 12.5 nM; in assay [2] it was 0.14 nM.

B9: feline IgG1a S252H/S434F (antibody, part only; not given: Variable domains, not shown: another chain or arm of the molecule)
constant: ASTTAPSVFPLAPSCGTTSGATVALACLVLGYFPEPVTVSWNSGALTSGVHTFPAVLQASGLYSLSSMVTVPSSRWLSDTFTCNVAHPPSNTKVDKTVRKTDHPPGPKPCDCPKCPPPEMLGGPSIFIFPPKPKDTLHISRTPEVTCLVVDLGPDDSDVQITWFVDNTQVYTAKTSPREEQFNSTYRVVSVLPILHQDWLKGKEFKCKVNSKSLPSPIERTISKAKGQPHEPQVYVLPPAQEELSRNKVSVTCLIKSFHPPDIAVEWEITGQPEPENNYRTTPPQLDSDGTYFVYSKLSVDRSHWQRGNTYTCSVSHEALHFHHTQKSLTQSPGK
On to B9, for which the Kd in assay [1] is 24.1 nM; in assay [2] it was 0.391 nM.

B10: feline IgG1a S252Y/S428M (antibody, part only; not given: Variable domains, not shown: another chain or arm of the molecule)
constant: ASTTAPSVFPLAPSCGTTSGATVALACLVLGYFPEPVTVSWNSGALTSGVHTFPAVLQASGLYSLSSMVTVPSSRWLSDTFTCNVAHPPSNTKVDKTVRKTDHPPGPKPCDCPKCPPPEMLGGPSIFIFPPKPKDTLYISRTPEVTCLVVDLGPDDSDVQITWFVDNTQVYTAKTSPREEQFNSTYRVVSVLPILHQDWLKGKEFKCKVNSKSLPSPIERTISKAKGQPHEPQVYVLPPAQEELSRNKVSVTCLIKSFHPPDIAVEWEITGQPEPENNYRTTPPQLDSDGTYFVYSKLSVDRSHWQRGNTYTCSVMHEALHSHHTQKSLTQSPGK
B10: the Kd in assay [1] was found to be 39.2 nM; in assay [2], 2.58 nM.

B11: feline IgG1a S252M/S428M/S434N (antibody, part only; not given: Variable domains, not shown: another chain or arm of the molecule)
constant: ASTTAPSVFPLAPSCGTTSGATVALACLVLGYFPEPVTVSWNSGALTSGVHTFPAVLQASGLYSLSSMVTVPSSRWLSDTFTCNVAHPPSNTKVDKTVRKTDHPPGPKPCDCPKCPPPEMLGGPSIFIFPPKPKDTLMISRTPEVTCLVVDLGPDDSDVQITWFVDNTQVYTAKTSPREEQFNSTYRVVSVLPILHQDWLKGKEFKCKVNSKSLPSPIERTISKAKGQPHEPQVYVLPPAQEELSRNKVSVTCLIKSFHPPDIAVEWEITGQPEPENNYRTTPPQLDSDGTYFVYSKLSVDRSHWQRGNTYTCSVMHEALHNHHTQKSLTQSPGK
For B11, the figures for the Kd in assay [1] and in assay [2] were 15.3 nM and 8.51 nM, respectively.

B12: feline IgG1a S252M/S428M (antibody, part only; not given: Variable domains, not shown: another chain or arm of the molecule)
constant: ASTTAPSVFPLAPSCGTTSGATVALACLVLGYFPEPVTVSWNSGALTSGVHTFPAVLQASGLYSLSSMVTVPSSRWLSDTFTCNVAHPPSNTKVDKTVRKTDHPPGPKPCDCPKCPPPEMLGGPSIFIFPPKPKDTLMISRTPEVTCLVVDLGPDDSDVQITWFVDNTQVYTAKTSPREEQFNSTYRVVSVLPILHQDWLKGKEFKCKVNSKSLPSPIERTISKAKGQPHEPQVYVLPPAQEELSRNKVSVTCLIKSFHPPDIAVEWEITGQPEPENNYRTTPPQLDSDGTYFVYSKLSVDRSHWQRGNTYTCSVMHEALHSHHTQKSLTQSPGK
With B12, the dissociation constant Kd in assay [1] stood at 19.5 nM; in assay [2], 7.27 nM.

B13: feline IgG1a S252M/S428M/S434N/H436Y (antibody, part only; not given: Variable domains, not shown: another chain or arm of the molecule)
constant: ASTTAPSVFPLAPSCGTTSGATVALACLVLGYFPEPVTVSWNSGALTSGVHTFPAVLQASGLYSLSSMVTVPSSRWLSDTFTCNVAHPPSNTKVDKTVRKTDHPPGPKPCDCPKCPPPEMLGGPSIFIFPPKPKDTLMISRTPEVTCLVVDLGPDDSDVQITWFVDNTQVYTAKTSPREEQFNSTYRVVSVLPILHQDWLKGKEFKCKVNSKSLPSPIERTISKAKGQPHEPQVYVLPPAQEELSRNKVSVTCLIKSFHPPDIAVEWEITGQPEPENNYRTTPPQLDSDGTYFVYSKLSVDRSHWQRGNTYTCSVMHEALHNHYTQKSLTQSPGK
For the molecule B13, the Kd turned out to be 28.7 nM in assay [1] and 20.5 nM in assay [2].

B14: feline IgG1a S252Y/S428M/Q311W (antibody, part only; not given: Variable domains, not shown: another chain or arm of the molecule)
constant: ASTTAPSVFPLAPSCGTTSGATVALACLVLGYFPEPVTVSWNSGALTSGVHTFPAVLQASGLYSLSSMVTVPSSRWLSDTFTCNVAHPPSNTKVDKTVRKTDHPPGPKPCDCPKCPPPEMLGGPSIFIFPPKPKDTLYISRTPEVTCLVVDLGPDDSDVQITWFVDNTQVYTAKTSPREEQFNSTYRVVSVLPILHWDWLKGKEFKCKVNSKSLPSPIERTISKAKGQPHEPQVYVLPPAQEELSRNKVSVTCLIKSFHPPDIAVEWEITGQPEPENNYRTTPPQLDSDGTYFVYSKLSVDRSHWQRGNTYTCSVMHEALHSHHTQKSLTQSPGK
With B14, the results for the Kd in assay [1] and in assay [2] were 18.8 nM and 0.506 nM, respectively.

B15: feline IgG1a S252M/S434N (antibody, part only; not given: Variable domains, not shown: another chain or arm of the molecule)
constant: ASTTAPSVFPLAPSCGTTSGATVALACLVLGYFPEPVTVSWNSGALTSGVHTFPAVLQASGLYSLSSMVTVPSSRWLSDTFTCNVAHPPSNTKVDKTVRKTDHPPGPKPCDCPKCPPPEMLGGPSIFIFPPKPKDTLMISRTPEVTCLVVDLGPDDSDVQITWFVDNTQVYTAKTSPREEQFNSTYRVVSVLPILHQDWLKGKEFKCKVNSKSLPSPIERTISKAKGQPHEPQVYVLPPAQEELSRNKVSVTCLIKSFHPPDIAVEWEITGQPEPENNYRTTPPQLDSDGTYFVYSKLSVDRSHWQRGNTYTCSVSHEALHNHHTQKSLTQSPGK
With B15, the Kd worked out at 33.8 nM in assay [1] and 14.8 nM in assay [2].
